First the molecules themselves.
B1: Serine/threonine-protein kinase LATS1, residues 98 to 141; numbered along this chain, O95835 (parent)
chain: TSEVNPQMLQDLQAAGFDEDMVIQALQKTNNRSIEAAIEFISKM

From the Human Domainome abundance scans (Beltran et al. 2025) come the findings set out here.

± gives the uncertainty stated by the source.

In this data set the parent is B1. Nature of the data set: abundance fitness (aPCA) (normalised: wild type 0, dead -1); higher = more abundant; growth selection in yeast, the domain comes from the species named. As to conditions: Homo sapiens.
Take TSEVNPQMLQDLQAAGFDEDMVIQADQKTNNRSIEAAIEFISKM [L26D]: the abundance fitness is -0.354 ± 0.059.

Regarding TSEVNPQMLQDLQAAGFDEDMVIQAHQKTNNRSIEAAIEFISKM [L26H], the abundance fitness was -0.111 ± 0.16.

With TSEVNPQMLQDLQAAGFDEDMVIQAIQKTNNRSIEAAIEFISKM [L26I], the abundance fitness was -0.292 ± 0.074.

Regarding TSEVNPQMLQDLQAAGFDEDMVIQAPQKTNNRSIEAAIEFISKM [L26P], the abundance fitness was -0.341 ± 0.052.

Turning to TSEVNPQMLQDLQAAGFDEDMVIQAGQKTNNRSIEAAIEFISKM [L26G], the abundance fitness was -0.358 ± 0.032.

Consider TSEVNPQMLQDLQAAGFDEDMVIQAAQKTNNRSIEAAIEFISKM [L26A], for which the abundance fitness is -0.523 ± 0.037.

In the case of TSEVNPQMLQDLQAAGFDEDMVIQAKQKTNNRSIEAAIEFISKM [L26K], the abundance fitness was -0.424 ± 0.069.

Turning to TSEVNPQMLQDLQAAGFDEDMVIQANQKTNNRSIEAAIEFISKM [L26N], the abundance fitness was -0.377 ± 0.06.

Regarding TSEVNPQMLQDLQAAGFDEDMVIQAFQKTNNRSIEAAIEFISKM [L26F], the abundance fitness is -0.54 ± 0.096.

TSEVNPQMLQDLQAAGFDEDMVIQAVQKTNNRSIEAAIEFISKM [L26V]: the abundance fitness is -0.571 ± 0.044.

Consider TSEVNPQMLQDLQAAGFDEDMVIQAMQKTNNRSIEAAIEFISKM [L26M], for which the abundance fitness is -0.559 ± 0.072.

Consider TSEVNPQMLQDLQAAGFDEDMVIQAQQKTNNRSIEAAIEFISKM [L26Q], for which the abundance fitness is -0.412 ± 0.05.

As to TSEVNPQMLQDLQAAGFDEDMVIQAEQKTNNRSIEAAIEFISKM [L26E], the abundance fitness is -0.263 ± 0.041.

For the variant TSEVNPQMLQDLQAAGFDEDMVIQAWQKTNNRSIEAAIEFISKM [L26W], the abundance fitness is -0.683 ± 0.045.

Turning to TSEVNPQMLQDLQAAGFDEDMVIQVLQKTNNRSIEAAIEFISKM [A25V], the abundance fitness is -0.68 ± 0.05.

With TSEVNPQMLQDLQAAGFDEDMVIQLLQKTNNRSIEAAIEFISKM [A25L], the abundance fitness is -0.802 ± 0.057.

As for TSEVNPQMLQDLQAAGFDEDMVIQWLQKTNNRSIEAAIEFISKM [A25W], the abundance fitness is -0.728 ± 0.042.

Consider TSEVNPQMLQDLQAAGFDEDMVIQMLQKTNNRSIEAAIEFISKM [A25M], for which the abundance fitness was -0.887 ± 0.1.

On to TSEVNPQMLQDLQAAGFDEDMVIQQLQKTNNRSIEAAIEFISKM [A25Q], for which the abundance fitness was -0.697 ± 0.088.

Consider TSEVNPQMLQDLQAAGFDEDMVIQNLQKTNNRSIEAAIEFISKM [A25N], for which the abundance fitness is -0.622 ± 0.13.

In the case of TSEVNPQMLQDLQAAGFDEDMVIQRLQKTNNRSIEAAIEFISKM [A25R], the abundance fitness was -0.768 ± 0.046.

As to TSEVNPQMLQDLQAAGFDEDMVIQPLQKTNNRSIEAAIEFISKM [A25P], the abundance fitness is -0.415 ± 0.056.

With TSEVNPQMLQDLQAAGFDEDMVIQSLQKTNNRSIEAAIEFISKM [A25S], the abundance fitness was -0.295 ± 0.035.

As for TSEVNPQMLQDLQAAGFDEDMVIQTLQKTNNRSIEAAIEFISKM [A25T], the abundance fitness was -0.741 ± 0.058.

For TSEVNPQMLQDLQAAGFDEDMVIQYLQKTNNRSIEAAIEFISKM [A25Y], the abundance fitness is -0.554 ± 0.067.

As to TSEVNPQMLQDLQAAGFDEDMVIQALCKTNNRSIEAAIEFISKM [Q27C], the abundance fitness is -0.273 ± 0.042.

On to TSEVNPQMLQDLQAAGFDEDMVIQALPKTNNRSIEAAIEFISKM [Q27P], for which the abundance fitness was -0.597 ± 0.055.

For the variant TSEVNPQMLQDLQAAGFDEDMVIQALMKTNNRSIEAAIEFISKM [Q27M], the abundance fitness is -0.123 ± 0.044.

As for TSEVNPQMLQDLQAAGFDEDMVIQALRKTNNRSIEAAIEFISKM [Q27R], the abundance fitness is -0.042 ± 0.031.

With TSEVNPQMLQDLQAAGFDEDMVIQALAKTNNRSIEAAIEFISKM [Q27A], the abundance fitness was -0.125 ± 0.037.

TSEVNPQMLQDLQAAGFDEDMVIQALGKTNNRSIEAAIEFISKM [Q27G]: the abundance fitness was -0.292 ± 0.031.

For TSEVNPQMLQDLQAAGFDEDMVIQALKKTNNRSIEAAIEFISKM [Q27K], the abundance fitness was 0.068 ± 0.044.

Turning to TSEVNPQMLQDLQAAGFDEDMVIQALTKTNNRSIEAAIEFISKM [Q27T], the abundance fitness is -0.007 ± 0.044.

TSEVNPQMLQDLQAAGFDEDMVIQALVKTNNRSIEAAIEFISKM [Q27V]: the abundance fitness is -0.043 ± 0.039.

On to TSEVNPQMLQDLQAAGFDEDMVIQALEKTNNRSIEAAIEFISKM [Q27E], for which the abundance fitness was -0.041 ± 0.042.

Take TSEVNPQMLQDLQAAGFDEDMVIQALSKTNNRSIEAAIEFISKM [Q27S]: the abundance fitness is -0.071 ± 0.036.

Turning to TSEVNPQMLQDLQAAGFDEDMVIQALDKTNNRSIEAAIEFISKM [Q27D], the abundance fitness is -0.151 ± 0.065.

TSEVNPQMLQDLQAAGFDEDMVIQALLKTNNRSIEAAIEFISKM [Q27L]: the abundance fitness is -0.068 ± 0.04.

For the variant TSEVNPQMLQDLQAAGFDEDMVIQALHKTNNRSIEAAIEFISKM [Q27H], the abundance fitness is -0.269 ± 0.092.

As to TSEVNPQMLQDLQAAGFDEDMVIQALWKTNNRSIEAAIEFISKM [Q27W], the abundance fitness was -0.57 ± 0.042.

On to TSEVNPQMLQDLQAAGFDEDMVIQALQMTNNRSIEAAIEFISKM [K28M], for which the abundance fitness is -0.037 ± 0.046.

With TSEVNPQMLQDLQAAGFDEDMVIQALQQTNNRSIEAAIEFISKM [K28Q], the abundance fitness was -0.024 ± 0.057.

As for TSEVNPQMLQDLQAAGFDEDMVIQALQHTNNRSIEAAIEFISKM [K28H], the abundance fitness was determined as 0.073 ± 0.054.

On to TSEVNPQMLQDLQAAGFDEDMVIQALQCTNNRSIEAAIEFISKM [K28C], for which the abundance fitness was -0.129 ± 0.05.

For TSEVNPQMLQDLQAAGFDEDMVIQALQATNNRSIEAAIEFISKM [K28A], the abundance fitness is 0.12 ± 0.038.

TSEVNPQMLQDLQAAGFDEDMVIQALQTTNNRSIEAAIEFISKM [K28T]: the abundance fitness was -0.259 ± 0.067.

With TSEVNPQMLQDLQAAGFDEDMVIQALQGTNNRSIEAAIEFISKM [K28G], the abundance fitness was -0.08 ± 0.031.

TSEVNPQMLQDLQAAGFDEDMVIQALQRTNNRSIEAAIEFISKM [K28R]: the abundance fitness was -0.048 ± 0.035.

Regarding TSEVNPQMLQDLQAAGFDEDMVIQALQSTNNRSIEAAIEFISKM [K28S], the abundance fitness was -0.041 ± 0.035.

For the variant TSEVNPQMLQDLQAAGFDEDMVIQALQVTNNRSIEAAIEFISKM [K28V], the abundance fitness was -0.163 ± 0.036.

Take TSEVNPQMLQDLQAAGFDEDMVIQALQDTNNRSIEAAIEFISKM [K28D]: the abundance fitness was -0.257 ± 0.063.

Take TSEVNPQMLQDLQAAGFDEDMVIQALQETNNRSIEAAIEFISKM [K28E]: the abundance fitness was 0.034 ± 0.039.

Consider TSEVNPQMLQDLQAAGFDEDMVIQALQLTNNRSIEAAIEFISKM [K28L], for which the abundance fitness was -0.366 ± 0.038.

As for TSEVNPQMLQDLQAAGFDEDMVIQALQITNNRSIEAAIEFISKM [K28I], the abundance fitness was -0.445 ± 0.13.

As to TSEVNPQMLQDLQAAGFDEDMVIQALQPTNNRSIEAAIEFISKM [K28P], the abundance fitness was -0.74 ± 0.072.

TSEVNPQMLQDLQAAGFDEDMVIQALQFTNNRSIEAAIEFISKM [K28F]: the abundance fitness is -0.148 ± 0.05.

As for TSEVNPQMLQDLQAAGFDEDMVIQALQWTNNRSIEAAIEFISKM [K28W], the abundance fitness is -0.444 ± 0.035.

As for TSEVNPQMLQDLQAAGFDEDMVIQALQYTNNRSIEAAIEFISKM [K28Y], the abundance fitness is -0.027 ± 0.075.
